Data as given in PMC5314347.

B1: ABHD5-luciferase(N) (alpha-beta hydrolase domain-containing 5, wild type) [mouse] / PLIN1-luciferase(C) (perilipin 1) [not stated] (parent)
chain 1: MKAMAAEEEVDSADAGGGSGWLTGWLPTWCPTSTSHLKEAEEKMLKCVPCTYKKEPVRISNGNRIWTLMFSHNISSKTPLVLLHGFGGGLGLWALNFEDLSTDRPVYAFDLLGFGRSSRPRFDSDAEEVENQFVESIEEWRCALRLDKMILLGHNLGGFLAAAYSLKYPSRVSHLILVEPWGFPERPDLADQERPIPVWIRALGAALTPFNPLAGLRIAGPFGLSLVQRLRPDFKRKYSSMFEDDTVTEYIYHCNVQTPSGETAFKNMTIPYGWAKRPMLQRIGGLHPDIPVSVIFGARSCIDGNSGTSIQSLRPKSYVKTIAILGAGHYVYADQPEEFNQKVKEICHTVD
chain 2: MSMNKGPTLLDGDLPEQENVLQRVLQLPVVSGTCECFQKTYNSTKEAHPLVASVCNAYEKGVQGASNLAAWSMEPVVRRLSTQFTAANELACRGLDHLEEKIPALQYPPEKIASELKGTISTRLRSARNSISVPIASTSDKVLGATLAGCELALGMAKETAEYAANTRVGRLASGGADLALGSIEKVVEFLLPPDKESAPSSGRQRTQKAPKAKPSLVRRVSTLANTLSRHTMQTTAWALKQGHSLAMWIPGVAPLSSLAQWGASAAMQVVSRRQSEVRVPWLHNLAASQDESHDDQTDTEGEETDDEEEEEESEAEENVLREVTALPNPRGLLGGVVHTVQNTLRNTISAVTWAPAAVLGTVGRILHLTPAQAVSSTKGRAMSLSDALKGVTDNVVDTVVHYVPLPRLSLMEPESEFRDIDNPSAEAERKGSGARPASPESTPRPGQPRGSLRSVRGLSAPSCPGLDDKTEASARPGFLAMPREKPARRVSDSFFRPSVMEPILGRAQYSQLRKKS
B2: ABHD5-luciferase(N) (alpha-beta hydrolase domain-containing 5, wild type) [mouse] / PLIN5-luciferase(C) (perilipin 5) [mouse] (parent)
chain 1: B1 chain 1
chain 2: MDQRGEDTTLAPHSRMSGDQTAQDPGSSLGELDQQNVVNRVVALPLVKATCTAVSSAYNSAKDRHPLLGSACRLAEHCVCSVTTCALDHAQPLLEHLQPQLATVNDLACRGLDKLEEKLPFLQQPSDMVVTSAKDTVAKSVTGMVDLAQRGRRWSGELRRSMSQAMDMVLGKSEKLVDRFLPMTEAELAVLAAEAEGPEVGTVEEQRQQQGYFVRLGSLSARLRHLAYEHSLGKLRQSKHRTQEMLAQLQETLELIQHMQRGASPSPTFHPPKTQELWGSWSPCLENGRSHSEVELETLALSRSLTLELQNAVDALAGCVRGLPPSAQAKVAEVQRSVDALQATFADAHCLGDVAPTALAEGRGSVARAHACVDEFLDLVLRAMPLPWLVGPFAPILVEQSEPLINLATCVDEVVGDPDPRWAHMDWPAQKRAWEAESADPGGQEAEPPRGQGKHTMMPELDF

Variants of: B1
Test: luciferase protein complementation analysis, SR4995 dose-response
Details: with PLIN1-luciferase(C) (perilipin 1); SR4995 titrated from 1e-8.5 to 1e-4 M; mean ± SD; read off a plot

IC50 (log10 M (log[SR4995])) | Variant
-6.8 | chain 1 MKAMAAEEEVDSADAGGGSGWLTGWLPTWCPTSTSHLKEAEEKMLKCVPCTYKKEPVRISNGNRIWTLMFSHNISSKTPLVLLHGFGGGLGLWALNFEDLSTDRPVYAFDLLGFGRSSRPRFDSDAEEVENQFVESIEEWRCALRLDKMILLGHNLGGFLAAAYSLKYPSRVSHLILVEPWGFPERPDLADQERPIPVWIRALGAALTPFNPLAGLRIAGPFGLSLVQRLRPDFKRKYSSMFEDDTVTEYIYHCNVQTPSGETAFKNMTIPYGWAKRPMLQRIGGLHPDIPVSVIFGARSCIDGNSGTSIQSLRPKSYVKTIAILGASHYVYADQPEEFNQKVKEICHTVD [chain 1 G328S]
-6.7 | chain 1 MKAMAAEEEVDSADAGGGSGWLTGWLPTWCPTSTSHLKEAEEKMLKCVPCTYKKEPVRISNGNRIWTLMFSHNISSKTPLVLLHGFGGGLGLWALNFEDLSTDRPVYAFDLLGFGRSSRPRFDSDAEEVENQFVESIEEWRCALRLDKMILLGHNLGGFLAAAYSLKYPSRVSHLILVEPWGFPERPDLADQERPIPVWIRALGAALTPFNPLAGLRIAGPFGLSLVQRLRPDFKRKYSSMFEDDTVTEYIYHCNVQTPSGETAFKNMTIPYGWAKRPMLQRIGGLHPDIPVSVIFGANSCIDGNSGTSIQSLRPKSYVKTIAILGAGHYVYADQPEEFNQKVKEICHTVD [chain 1 R299N]

Variants of: B2
Test: as above
Details: with PLIN5-luciferase(C) (perilipin 5) [mouse]; SR4995 titrated from 1e-8.5 to 1e-4 M; mean ± SD; read off a plot

IC50 (log10 M (log[SR4995])) | Variant
-6.5 | chain 1 MKAMAAEEEVDSADAGGGSGWLTGWLPTWCPTSTSHLKEAEEKMLKCVPCTYKKEPVRISNGNRIWTLMFSHNISSKTPLVLLHGFGGGLGLWALNFEDLSTDRPVYAFDLLGFGRSSRPRFDSDAEEVENQFVESIEEWRCALRLDKMILLGHNLGGFLAAAYSLKYPSRVSHLILVEPWGFPERPDLADQERPIPVWIRALGAALTPFNPLAGLRIAGPFGLSLVQRLRPDFKRKYSSMFEDDTVTEYIYHCNVQTPSGETAFKNMTIPYGWAKRPMLQRIGGLHPDIPVSVIFGANSCIDGNSGTSIQSLRPKSYVKTIAILGAGHYVYADQPEEFNQKVKEICHTVD [chain 1 R299N]
-7.2 | chain 1 MKAMAAEEEVDSADAGGGSGWLTGWLPTWCPTSTSHLKEAEEKMLKCVPCTYKKEPVRISNGNRIWTLMFSHNISSKTPLVLLHGFGGGLGLWALNFEDLSTDRPVYAFDLLGFGRSSRPRFDSDAEEVENQFVESIEEWRCALRLDKMILLGHNLGGFLAAAYSLKYPSRVSHLILVEPWGFPERPDLADQERPIPVWIRALGAALTPFNPLAGLRIAGPFGLSLVQRLRPDFKRKYSSMFEDDTVTEYIYHCNVQTPSGETAFKNMTIPYGWAKRPMLQRIGGLHPDIPVSVIFGARSCIDGNSGTSIQSLRPKSYVKTIAILGASHYVYADQPEEFNQKVKEICHTVD [chain 1 G328S]
